The results in this text go back to patent publication US7173007 (University of California, dated 2007).

This series deals with the molecule itself. Put plainly: SDS-PAGE / Western blot, self-association. The procedure:
SDS-PAGE and immunoblotting. The purity of cathelin-like or hCAP18/LL-37 protein was first confirmed by SDS-PAGE followed by Coomassie blue and silver staining. For Western blot, protein was separated by SDS-PAGE and was then transferred to nitrocellulose membranes using the Bio-Rad system. Membranes were blocked for 1 h at room temperature with 0.1% low fat milk in 50 mM Tris-HCl, pH 7.5, 150 mM NaCl, 0.2% Tween-20, and were probed overnight at […] with chicken polyclonal anticathelin-like antibodies (1:15,000) to detect cathelin-like protein or with rabbit anti-LL-37 antibodies (1:6000) to detect full-length hCAP18/LL-37, followed by extensive washing. Immunoreactive materials were detected by enhanced chemiluminescence using horseradish peroxidase conjugated antichicken antibodies (1:20,000) or horseradish peroxidase conjugated antirabbit antibodies (1:5000).
(Immunoblotting shows a protein as a band on a membrane.)

B1: His-tagged cathelin-like fusion protein (before enterokinase digestion), approximately 16 kDa (other, not shown: small tags and cut ends)
chain: QVLSYKEAVLRAIDGINQRSSDANLYRLLDLDPRPTMDGDPDTPKPVSFTVKETVCPRTTQQSPEDCDFKKDGLVKRCMGTVTLNQARGSFDISCDKDNKR
notes: also called His-tagged cathelin-like protein before cleavage; cathelin-like protein before digestion with enterokinase
With B1, the binding result is on record as “binds”.
